# Results: the DeepSol protein solubility set
# Assay: soluble on expression in E. coli; label from the status in PepcDB or PDB records
row,Sequence,soluble on expression in E. coli
1,MKNKGLLLKVSTGLAAVSFLFSEYLFKISFKRVDHVPETSQEKQKYAASYWEYVDWFRRINKEHWTFQTKNETERMSAYFIPSKEENSKKVVIIAHGYKGNGETMSSYAKMFYEMGFNVLLPDDRGHGQSMGEYISFGWLDRLDYLQWLKKIIKRVGPKSEILLFGVSMGASTVEMLSGEDLPSQVKCVIADCGYSSIDEEMTFLLKHHYHLPKYPFYPLVSTINRYRLGYYLGDVSSVEQLKKNKLPIFFIHGENDDYVPSYMSLENYEATTAAKELWIVNNATHAESYWLDPLEYKKRIKDFLNKYFNDKN,not soluble
2,MKFTVGIAMNPLDQLPALARTAEECGFSSIALPDSLFFMEKQSADYPYTPDGSRMWNEETPWVDPLIAAAAMGAVTSKIEFYTQVLKLGSRNPVLLARQVGSVANLIGNRFGFGVGIGWAPEEFEWCGVPYKKRGARVDEMIDVIKLILGGGMVEYHGEFFDFDRLQMSPAPTKPVPFYVGGHTDVALRRAARVGDGWTSAMIKFDDLVQVIARLRELREEYGRADLPYEIQTVCIDRFGKDGYAELADAGVTDTIVVPWVFDGIGFDGPLEAKQDSLRKFADQYIG,not soluble
3,PFRLHATYDESISRMLDVFEKVDRDIPFNGLPWFFDHAETISPKNIERVRALGGGIAIQDRMAFQGEYFVERYGAKAAEMTPPIQRMLAEGIPVGAGTDATRVSSYNPWTSLYWMVSGRTVGGLELYPQGLSRDTALELYTHGSAWFSSEQGKKGQIKVGQLADLVALSADYFSVEEEAIKWIESLLTVVDGKVVHAAGDFDQLAPPSLPVTPDWSPVAKVPGHWKPGAPLQNQVHQCSGPCAVHAHGHQKARMSNVPVSDFQGFWGAFGCSCFA,not soluble
4,MEREQALWIVKQQLTEQRYEHTLGVVETAVKLAKQYGADAKKAELAAIFHDYAKFRPVEEMKQIILAQNMPNDLLAYNSELWHAPVGAYLVQTEVGIDDPEVLDAIRYHTSGRAGMTVLEKIIYLADYIEPGRRFPGVDDVRRLAEEDLNRALLQAVKNTIAFLLEKRQLIYPDTIHAYNSLMREVKGEAKR,not soluble
5,MKQRDSLDEKRRQLTYFTSCNAGTCQCRGFRPVLNHEDETVERRATRAERENDFAPMTRDLETLGSEEIIECRTCGHSISFHAEPLKYLSQEDLDTYTDQISDLQTCCSELSEIDPSHESLQTLYITMQILLKSLRTLTPVDVPFIGKPNFEPESLSPYILVKKFIASRPVDNAEKQRLAEIGTLFLTEMNHWKLEGFQSLADKLNVPLEQGKYRMMYVRMDYYVNMPAKYVSFKQFQTVDIFGEKFTTTFCNYLINVLNTGNYTPFGLSESDLEENSEDLITFATDLRRYLETEDPQSTSTTNRRKDSISTEDVILKYVKRKKPTDHSESSSPRELSTSPVEEPRRRKKEPSSSAKKSPETEESMALLRSLIRAIKFEGDLDAMEPKTKVEFEALNTEVSRGLSALQEEESGLIEFRVIGNDLDPFQHHEQLVHLVELQNLFGAQLPKMPKEYVTRLIFDSRHQNMVILKRDMGVIGGICFRTFPSRGFVEIVFCAITAMEQVKGYGTHLMNHCKDYMIKNKIYHMLTYADEFAIGYFTKQGFSEKLEINDTVYQGWIKEYEGATLMGCHLHPQISYTKFPDFSKGIQALHCGYKSENGAESRGKVFGGLEHLFRESSPQLLELRKVPGTDSLKMHKKSCYHLDERDDSLDSKIGAILKKLTADKNAWPFASPVDVKEVPEYYDHIKHPIDFKTMQEKLKRKAYTHQHLFIADLNRLFQNCYVFNGAEAVYYKYGYKLNELALKLLKTSFPESSWYPELPEQKPLC,not soluble
6,NRLKDSKAKSRVVILLTDGSNNMGDITPRMAADIARTFGIRVYTVGVGTRGEAPFPIQTEFGVRIQNVPVDIDEPTLDGIAEVSGGKYFRAVDNETLNEIYKEIDKLEKTRLMTKSFKAYEEK,not soluble
7,MNLLIDNWIPVRPRNGGKVQIINLQSLYCSRDQWRLSLPRDDMELAALALLVCIGQIIAPAKDDVEFRHRIMNPLTEDEFQQLIAPWIDMFYLNHAEHPFMQTKGVKANDVTPMEKLLAGVSGATNCAFVNQPGQGEALCGGCTAIALFNQANQAPGFGGGFKSGLRGGTPVTTFVRGIDLRSTVLLNVLTLPRLQKQFPNESHTENQPTWIKPIKSNESIPASSIGFVRGLFWQPAHIELCDPIGIGKCSCCGQESNLRYTGFLKEKFTFTVNGLWPHPHSPCLVTVKKGEVEEKFLAFTTSAPSWTQISRVVVDKIIQNENGNRVAAVVNQFRNIAPQSPLELIMGGYRNNQASILERRHDVLMFNQGWQQYGNVINEIVTVGLGYKTALRKALYTFAEGFKNKDFKGAGVSVHETAERHFYRQSELLIPDVLANVNFSQADEVIADLRDKLHQLCEMLFNQSVAPYAHHPKLISTLALARATLYKHLRELKPQGGPSNG,soluble
8,MSSLRRKWISDPAFKVFKKVLPPLSSTEKEAMEAGSVWWDAELFSGKPNFTTLHHYPAPTLTAEEQAFMDNELETLLDMLDDQKIVKEDRDLPPEVWEYLRKERFFSLIISKEYGGREFSALANSTIVSRIATRSISVAVSVMVPNSLGPGELLSHYGTQEQKDYWLPRLADGTDIPCFALTGPEAGSDAGGIPDQGVVCYGMYDGEEVLGVRVSWNKR,not soluble
9,MGVMNKGDSVEKCYMCDAEGNTKEHVPPKCIFPEAKDVPSGDNYKKNLITVRSCEKHNTAKSKDDVYLLFFLAANVVSNDLAQTQFGTKIMRAVNRTPHVFAQFAKKNTPVTLKGENGELIHTAAIEIDRARFDAAIEHISHALHYHKYGETFIGDIQVITSGLVDLSSIDSVEVNDRIQNFGQMVDELLADVEPEGDNPEVFTYKVLKTDEPHQVIIQMNFYGGFKIVSIMKYS,not soluble
10,SMVFDSESNLDRFLRCTTPIVPAYSLPKTQIKNLNPLWYPLESQSVEYFRLGDFWDCFDEWSAYGAGVPIVSETGETLVQYYVPYLSAIQIFTSHSVINTLREETESGDSGSESCSEEWRWEGCSSSEEGFDHQEPLDRLGYSYLQYFERCTPYSRVPLMDKIKELGERYVGLRSLRSVDLSPASWMAVAWYPIYHIPMNRSIKDLSTCFLTYHTLSSSFQDVKREEEKERISVSAFGMATYKMQGRLWDNDRLLCFLSVADSWLKQLRVHHHDFTYFTTTTHYL,soluble
11,MYAFVRFLEDNVCYALPVSCVRDFSPRSRLDFDNQKVYAVYRGPEELGAGPESPPRAPRDWGALLLHKAQILALAEDKSDLENSVMQKKIKIPKLSLNHVEEDGEVKDYGEEDLQLRHIKRPEGRKPSEVAHKSIEAVVARLEKQNGLSLGHSTCPEEVFVEASPGTEDMDSLEDAVVPRALYEELLRNYQQQQEEMRHLQQELERTRRQLVQQAKKLKEYGALVSEMKELRDLNRRLQDVLLLRLGSGPAIDLEKVKSECLEPEPELRSTFSEEANTSSYYPAPAPVMDKYILDNGKVHLGSGIWVDEEKWHQLQVTQGDSKYTKNLAVMIWGTDVLKNRSVTGVATKKKKDAVPKPPLSPHKLSIVRECLYDRIAQETVDETEIAQRLSKVNKYICEKIMDINKSCKNEERREAKYNLQ,soluble
12,MSFDADEEILQDFLVEAGEILEQLSEQLVELESRPDDMDLLNAIFRGFHTVKGGAGFLQLNALVECCHIAENVFDILRKGERRVSSELMDVVLQALDTVNAMFDQVREQSEPTPATPELLAALARLAEPEGAEPAEPVQAPPAAVPPAEPAAPPEAPAQSASSDITDDEFEQLLDALQGDEAPASAVAEAPAAPAGDEISDAEFEALLDQLHGKGKFVPPAVSAEPAQVPAEAVEPAAAAAGDDISDDEFEALLDELHGKGKFGDVPEAAGTPAAPAAAAPAAAPAEQGKAPAAAGGDEISDDEFESLLDELHGKGKFNGASEAVAAAAAVAKNIAAKSPAAKPVAPAKAAAARPAAPDRPAASEAETTVRVDTARLDEIMNMVGELVLVRNRLVRLGLNSGDEAMAKAVANLDVVTGDLQMSVMKTRMQPIKKVFGRFPRLVRDLARNMKKEINLELVGEETDLDKNLVEALADPLVHLVRNAVDHGIESPEEREAAGKPRVGQVVLSAEQEGDHILLMITDDGKGMDAEVLRNKAVEKGLLERDAADRLTDLECYNLIFAPGFSTKTEISDVSGRGVGMDVVKTKISQLNGTVNVFSQKGSGSKIVIKVPLTLAIMPTLMVMLGSQAFAFPLVNVNEIFHLDLSRTNVVDGQEVVIVRDKALPLFYLKRWLVPSAAHEEQGEGHVVILSVGTQRIGFVVDQLVGQEEVVIKPLGKMLQGTPGMAGATITGDGRIALILDVPSMLKRYARRI,not soluble
